Measured values reported in US20210388081A1 (Memorial Sloan Kettering, published 2021).

T1: FcRL2, overexpressed on 3T3 cells (UniProt Q96LA5 20-508, limits assumed)
T1 construct: whole, on cells
T1 sequence (looked up): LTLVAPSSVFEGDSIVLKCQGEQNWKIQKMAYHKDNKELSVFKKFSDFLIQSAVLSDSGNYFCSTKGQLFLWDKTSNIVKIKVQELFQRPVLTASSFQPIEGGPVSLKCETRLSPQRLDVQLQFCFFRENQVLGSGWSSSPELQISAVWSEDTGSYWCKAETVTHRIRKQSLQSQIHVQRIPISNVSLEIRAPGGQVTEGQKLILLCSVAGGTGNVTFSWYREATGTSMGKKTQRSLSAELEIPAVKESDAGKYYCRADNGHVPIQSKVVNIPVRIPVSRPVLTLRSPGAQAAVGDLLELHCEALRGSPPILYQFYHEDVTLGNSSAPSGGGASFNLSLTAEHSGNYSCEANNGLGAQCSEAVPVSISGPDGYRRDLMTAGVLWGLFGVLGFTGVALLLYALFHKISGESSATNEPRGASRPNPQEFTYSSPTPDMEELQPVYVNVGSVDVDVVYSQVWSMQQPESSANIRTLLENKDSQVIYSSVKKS

T2: FcRL3, overexpressed on 3T3 cells (UniProt Q96P31 18-734, limits assumed)
T2 construct: whole, on cells
T2 sequence (looked up): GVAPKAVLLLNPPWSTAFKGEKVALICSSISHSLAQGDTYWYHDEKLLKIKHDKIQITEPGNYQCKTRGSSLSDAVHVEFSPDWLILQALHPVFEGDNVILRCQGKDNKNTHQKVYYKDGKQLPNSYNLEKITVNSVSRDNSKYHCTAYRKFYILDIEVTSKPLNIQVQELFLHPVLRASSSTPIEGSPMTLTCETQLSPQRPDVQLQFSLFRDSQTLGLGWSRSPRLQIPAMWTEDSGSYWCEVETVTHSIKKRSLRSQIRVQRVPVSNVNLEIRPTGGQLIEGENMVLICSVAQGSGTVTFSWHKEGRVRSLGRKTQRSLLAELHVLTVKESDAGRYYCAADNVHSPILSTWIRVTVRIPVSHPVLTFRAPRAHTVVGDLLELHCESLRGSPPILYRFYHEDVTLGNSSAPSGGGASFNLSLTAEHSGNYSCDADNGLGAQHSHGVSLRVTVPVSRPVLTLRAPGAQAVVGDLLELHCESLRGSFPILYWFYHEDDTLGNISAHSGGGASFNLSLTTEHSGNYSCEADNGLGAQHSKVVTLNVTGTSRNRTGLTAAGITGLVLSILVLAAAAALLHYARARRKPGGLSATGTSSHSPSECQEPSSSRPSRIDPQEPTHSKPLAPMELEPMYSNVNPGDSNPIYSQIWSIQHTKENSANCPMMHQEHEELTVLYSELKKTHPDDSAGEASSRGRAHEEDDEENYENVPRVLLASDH

T3: FcRL4, overexpressed on 3T3 cells (UniProt Q96PJ5 20-515, limits assumed)
T3 construct: whole, on cells
T3 sequence (looked up): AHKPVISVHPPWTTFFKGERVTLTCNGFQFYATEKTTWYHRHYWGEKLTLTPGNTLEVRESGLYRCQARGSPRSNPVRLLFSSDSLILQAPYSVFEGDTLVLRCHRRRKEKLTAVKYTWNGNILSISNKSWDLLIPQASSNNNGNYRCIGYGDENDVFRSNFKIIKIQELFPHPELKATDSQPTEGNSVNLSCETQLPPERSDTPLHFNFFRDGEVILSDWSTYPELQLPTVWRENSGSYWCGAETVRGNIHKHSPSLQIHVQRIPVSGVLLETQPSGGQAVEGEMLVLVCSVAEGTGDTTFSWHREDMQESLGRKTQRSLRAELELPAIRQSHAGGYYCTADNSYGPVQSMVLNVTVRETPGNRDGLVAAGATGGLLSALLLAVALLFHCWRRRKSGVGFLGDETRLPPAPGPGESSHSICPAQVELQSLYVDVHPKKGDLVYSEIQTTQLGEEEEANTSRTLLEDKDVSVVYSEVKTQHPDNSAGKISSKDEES

T4: FcRL1, overexpressed on 3T3 cells (UniProt Q96LA6 17-429, limits assumed)
T4 construct: whole, on cells
T4 sequence (looked up): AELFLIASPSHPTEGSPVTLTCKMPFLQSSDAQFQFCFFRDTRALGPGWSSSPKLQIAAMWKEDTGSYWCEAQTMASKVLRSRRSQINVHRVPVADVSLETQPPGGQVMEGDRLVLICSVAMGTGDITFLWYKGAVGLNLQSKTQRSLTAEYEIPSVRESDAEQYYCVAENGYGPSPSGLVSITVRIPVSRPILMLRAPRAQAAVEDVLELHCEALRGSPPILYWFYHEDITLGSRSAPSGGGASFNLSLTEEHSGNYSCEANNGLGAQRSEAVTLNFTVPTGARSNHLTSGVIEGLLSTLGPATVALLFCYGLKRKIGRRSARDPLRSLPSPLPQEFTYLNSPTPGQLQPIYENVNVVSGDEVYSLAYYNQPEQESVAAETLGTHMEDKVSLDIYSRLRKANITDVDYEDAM

T5: FcRL6, overexpressed on 3T3 cells (UniProt Q6DN72 20-434, limits assumed)
T5 construct: whole, on cells
T5 sequence (looked up): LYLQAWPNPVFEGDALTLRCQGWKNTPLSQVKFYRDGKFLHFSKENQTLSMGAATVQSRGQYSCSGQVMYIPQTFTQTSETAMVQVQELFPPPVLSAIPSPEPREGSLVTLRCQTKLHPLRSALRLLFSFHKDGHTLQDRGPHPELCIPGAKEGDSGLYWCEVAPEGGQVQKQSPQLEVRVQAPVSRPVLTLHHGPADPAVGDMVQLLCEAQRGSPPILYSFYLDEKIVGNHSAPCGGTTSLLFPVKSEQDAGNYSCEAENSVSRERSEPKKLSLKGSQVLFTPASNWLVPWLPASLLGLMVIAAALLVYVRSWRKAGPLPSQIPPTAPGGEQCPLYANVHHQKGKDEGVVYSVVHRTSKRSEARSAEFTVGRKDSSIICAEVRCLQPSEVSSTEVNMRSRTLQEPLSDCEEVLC

B1: ET200-024 (scFv)
scFv: NFMLTQPHSVSESPGKTVTISCTGSSGSIASNYVQWYQQRPGSAPTTVIYEDNQRPSGVPDRFSGSIDSSSNSASLTISGLKTEDEADYYCQSYDSSNLWVFGGGTKLTVLGSRGGGGSGGGGSGGGGSLEMAQMQLVQSGAEVKKPGSSVKVSCKASGGTFSSYAISWVRQAPGQGLEWMGGIIPIFGTANYAQKFQGRVTITADESTSTAYMELSSLRSEDTAVYYCARYNYYYYDSWGQGTLVTVSSTSGQAGQHHHHHHGAYPYDVPDYAS
notes: screened as phage clone; entry is VL-linker-VH-His tag-HA tag
B2: ET200-037 (scFv)
scFv: SYVLTQPPSVSVAPGKTARITCGGNNIGSKSVHWYQQKPGQAPVLVIYYDSDRPSGIPERFSGSNSGNTATLTISRVEAGDEADYYCQVWDSSSDHPYVFGTGTKVTVLGSRGGGGSGGGGSGGGGSLEMAQMQLVQSGAEVKKPGASVKVSCKASGYTFTSYGISWVRQAPGQGLEWMGWISAYNGNTNYAQKLQGRVTMTTDTSTSTAYMELRSLRSDDTAVYYCARSMFGAHDSWGQGTLVTVSSTSGQAGQHHHHHHGAYPYDVPDYAS
notes: as for B1

Columns and labels:
[1] = target: anti-FcRL5/CD3 bispecific antibody generated using the ET200-117 scFv; assay: ELISA, ET200-117 coated at 1 µg/ml on a Nunc Maxisorp plate; for some dilutions of the secondary Ab
[2] = target: anti-FcRL5/CD3 bispecific antibody generated using the ET200-104 scFv; assay: ELISA, ET200-104 coated at 1 µg/ml on a Nunc Maxisorp plate; for some dilutions of the secondary Ab
[3] = target: T1, FcRL2, overexpressed on 3T3 cells; assay: phage clone on 3T3-FcRL2 cells
[4] = target: T2, FcRL3, overexpressed on 3T3 cells; assay: phage clone on 3T3-FcRL3 cells
[5] = target: T3, FcRL4, overexpressed on 3T3 cells; assay: phage clone on 3T3-FcRL4 cells
[6] = target: T4, FcRL1, overexpressed on 3T3 cells; assay: phage clone on 3T3-FcRL1 cells
[7] = target: T5, FcRL6, overexpressed on 3T3 cells; assay: phage clone on 3T3-FcRL6 cells
SLAMF9 protein = SLAMF9 protein (UniProt Q96A28 19-236, limits assumed); assay: phage clone on SLAMF9 protein
SLAMF9 protein, sequence (Q96A28 19-236 limits assumed): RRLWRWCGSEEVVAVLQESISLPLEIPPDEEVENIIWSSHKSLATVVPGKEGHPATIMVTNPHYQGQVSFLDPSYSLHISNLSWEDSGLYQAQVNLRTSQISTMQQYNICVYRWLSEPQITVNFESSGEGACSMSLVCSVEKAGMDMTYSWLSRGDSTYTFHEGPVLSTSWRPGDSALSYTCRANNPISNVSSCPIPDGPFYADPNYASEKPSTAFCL

anti-FcRL5/CD3 bispecific antibody generated using the ET200-117 scFv, sequence (scFv, as listed by the source limits assumed, form in doubt): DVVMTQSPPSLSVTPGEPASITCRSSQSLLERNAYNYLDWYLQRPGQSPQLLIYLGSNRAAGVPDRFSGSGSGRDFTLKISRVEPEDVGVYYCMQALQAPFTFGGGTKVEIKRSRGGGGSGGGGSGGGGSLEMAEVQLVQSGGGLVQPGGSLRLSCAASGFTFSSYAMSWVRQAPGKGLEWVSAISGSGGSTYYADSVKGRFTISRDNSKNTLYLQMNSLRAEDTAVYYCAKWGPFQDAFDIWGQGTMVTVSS

Molecule	OD [1]	OD [2]	binding result [3]	binding result [4]	binding result [5]	binding result [6]	binding result [7]	binding result (SLAMF9 protein)
Goat Anti-Human Ig-HRP (Southern Biotech; #2010/05) (antibody)	> 1 OD	> 1 OD	–	–	–	–	–	–
B1	–	–	no binding	no binding	no binding	no binding	no binding	no binding
B2	–	–	no binding	no binding	no binding	no binding	no binding	no binding
